The target of assay [1] is T1, recombinant human CD3 epsilon His-tag protein (Novoprotein, Cat. No. C578) (human, UniProt P07766 23-126).
T1 construct: Bought protein; not shown: His-tag
Description: dual-binding ELISA: BCMA Fc coated, then CD3 epsilon His, anti-His detection. Background: In an ELISA, binding on a coated surface is turned into a signal by an enzyme label.

Assay [2] concerns the target T2, recombinant Human BCMA Fc Chimera (produced in-house via transient expression in HEK293-6E cells) (human, UniProt Q02223 1-54).
T2 construct: not shown: Fc part of the chimera
T2 sequence (looked up): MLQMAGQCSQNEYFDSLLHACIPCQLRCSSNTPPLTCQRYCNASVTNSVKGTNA
The description is as above.

The target of assay [3] is T3, extracellular domain of human PD-L1 (Example 8) (human, UniProt Q9NZQ7 19-238).
T3 construct: extracellular domain; also called PD-L1 antigen; immobilized PD-L1
T3 sequence (Q9NZQ7 19-238): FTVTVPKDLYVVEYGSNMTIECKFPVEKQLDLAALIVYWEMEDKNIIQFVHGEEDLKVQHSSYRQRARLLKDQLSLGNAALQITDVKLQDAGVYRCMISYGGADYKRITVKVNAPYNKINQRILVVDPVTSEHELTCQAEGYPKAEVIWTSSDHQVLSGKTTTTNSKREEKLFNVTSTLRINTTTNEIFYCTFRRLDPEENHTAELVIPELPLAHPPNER
The assay can be described thus: competition ELISA in solution (Friguet), Scatchard plot.
Description: First, mixtures of the trispecific antibody (Ab) at a fixed concentration and the PD-L1 antigen (Ag) at varying concentrations were incubated for sufficient time to reach equilibrium. Then the concentration of trispecific antibody, which remained unsaturated at equilibrium (not associated with PD-L1 antigen), was measured by a classical indirect ELISA using PD-L1 coated plates. […] The Kd was calculated from a Scatchard plot using the following equation:

The target of assay [4] is T4, recombinant human PD-L1 His-tag protein (expressed after transient transfection in HEK293-6E) (human, UniProt Q9NZQ7 19-238, limits assumed).
T4 construct: not shown: His-tag
T4 sequence (Q9NZQ7 19-238 limits assumed): as the sequence (Q9NZQ7 19-238) above
Description: dual-binding ELISA: BCMA Fc coated, then PD-L1 His, anti-His detection.

The target of assay [5] is T2, recombinant Human BCMA Fc Chimera …. Description: dual-binding ELISA: BCMA Fc coated, then CD3 epsilon His or PD-L1 His, anti-His detection.
Description: Trispecific antibody molecules were tested for their ability to bind the different targets using a Dual-Binding ELISA. […] Simultaneous binding to antigen pairs was detected via an anti-His antibody (Abcam, Cat. No. ab1187).

Usually Kd stands for a measure of binding affinity in units of concentration.

T1 sequence (P07766 23-126): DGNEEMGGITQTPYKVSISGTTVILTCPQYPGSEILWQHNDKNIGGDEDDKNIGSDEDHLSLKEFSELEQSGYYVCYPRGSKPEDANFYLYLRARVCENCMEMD

B1: CDR1-008 (bispecific antibody)
scFv: DIVLTQSPASLAMSLGKRATISCRASESVSVIGAHLIHWYQQKPGQPPKLLIYLASNLETGVPARFSGSGSGTDFTLTIDPVEEDDVAIYSCLQSRIFPRTFGGGTKLEIKGGGGSGGGGSGGGGSGGGGSQIQLVQSGPELKKPGETVKISCKASGYTFTDYSINWVKRAPGKGLKWMGWINTETREPAYAYDFRGRFAFSLETSASTAYLQINNLKYEDTATYFCALDYSYAMDYWGQGTSVTVSSGGGGSAVVTQEPSLTVSPGGTVTLTCGSSTGAVTTSNYANWVQQKPGKSPRGLIGGTNKRAPGVPARFSGSLLGGKAALTISGAQPEDEADYYCALWYSNHWVFGGGTKLTVLGGGGGSGGGGSGGGGSGGGGSEVQLVESGGGSVQPGGSLRLSCAASGFTFSTYAMNWVRQAPGKGLEWVGRIRSKANNYATYYADSVKGRFTISRDDSKNTLYLQMNSLRAEDTATYYCVRHGNFGDSYVSWFAYWGQGTTVTVSS
notes: also called bispecific tandem scFv BCMA/CD3; scFv BCMA/scFv CD3 BiTE
B1: the binding result in assay [1] and in assay [2] was “binds” throughout.

B2: CDR1-011 (other)
heavy: QIQLVQSGPELKKPGETVKISCKASGYTFTDYSINWVKRAPGKGLKWMGWINTETREPAYAYDFRGRFAFSLETSASTAYLQINNLKYEDTATYFCALDYSYAMDYWGQGTSVTVSSASTKGPSVFPLAPSSKSTSGGTAALGCLVKDYFPEPVTVSWNSGALTSGVHTFPAVLQSSGLYSLSSVVTVPSSSLGTQTYICNVNHKPSNTKVDKRVEPKSCGGGGSEIVMTQSPSTLSASVGDRVIITCQASEDIASLLAWYQQKPGKAPKLLIYDASDLASGVPSRFSGSGSGAEFTLTISSLQPDDSATYYCQGNYGSSSSSSYGAVFGQGTKLTVLGGGGGSGGGGSGGGGSGGGGSEVQLVESGGGSVQPGGSLRLSCTVSGIDLSSYTMGWVRQAPGKGLEWVGIISSGGRTYYASWAKGRFTISRDTSKNTVYLQMNSLRAEDTATYYCARGRYTGYPYYFALWGQGTTVTVSS
light: DIVLTQSPASLAMSLGKRATISCRASESVSVIGAHLIHWYQQKPGQPPKLLIYLASNLETGVPARFSGSGSGTDFTLTIDPVEEDDVAIYSCLQSRIFPRTFGGGTKLEIKRTVAAPSVFIFPPSDEQLKSGTASVVCLLNNFYPREAKVQWKVDNALQSGNSQESVTEQDSKDSTYSLSSTLTLSKADYEKHKVYACEVTHQGLSSPVTKSFNRGECGGGGSAVVTQEPSLTVSPGGTVTLTCGSSTGAVTTSNYANWVQQKPGKSPRGLIGGTNKRAPGVPARFSGSLLGGKAALTISGAQPEDEADYYCALWYSNHWVFGGGTKLTVLGGGGGSGGGGSGGGGSGGGGSEVQLVESGGGSVQPGGSLRLSCAASGFTFSTYAMNWVRQAPGKGLEWVGRIRSKANNYATYYADSVKGRFTISRDDSKNTLYLQMNSLRAEDTATYYCVRHGNFGDSYVSWFAYWGQGTTVTVSS
notes: also called CDR1-0011
As for B2, in assay [3], binding was characterised by a dissociation constant (Kd) of 5 nM.

B3: CDR1-005 (bispecific antibody)
heavy: QIQLVQSGPELKKPGETVKISCKASGYTFTDYSINWVKRAPGKGLKWMGWINTETREPAYAYDFRGRFAFSLETSASTAYLQINNLKYEDTATYFCALDYSYAMDYWGQGTSVTVSSASTKGPSVFPLAPSSKSTSGGTAALGCLVKDYFPEPVTVSWNSGALTSGVHTFPAVLQSSGLYSLSSVVTVPSSSLGTQTYICNVNHKPSNTKVDKRVEPKSC
light: B2 light
For the molecule B3, the binding result in assay [1] and in assay [2] was “binds” each time.

B4: CDR1-056 (other)
chain: AVVTQEPSLTVSPGGTVTLTCGSSTGAVTTSNYANWVQQKPGKSPRGLIGGTNKRAPGVPARFSGSLLGGKAALTISGAQPEDEADYYCALWYSNHWVFGGGTKLTVLGGGGGSGGGGSGGGGSGGGGSEVQLVESGGGSVQPGGSLRLSCAASGFTFSTYAMNWVRQAPGKGLEWVGRIRSKANNYATYYADSVKGRFTISRDDSKNTLYLQMNSLRAEDTATYYCVRHGNFGDSYVSWFAYWGQGTTVTVSSGGGGSQVQLVESGGGLVQPGGSLRLSCAASGKMSSRRCMAWFRQAPGKGLERVAKLLTTSGSTYLADSVKGRFTISRDNSKNTVYLQMNSLRAEDTAVYYCAADSFEDPTCTLVTSSGAFQYWGQGTLVTVSSGGGGSQVQLVESGGGLVQPGGSLRLSCAASGFTLDYYAIGWFRQAPGKEREGVSCISRSDGSTYYADSVKGRFTISRDNAKNTVYLQMNSLKPEDTAVYYCAAAGADCSGYLRDYEFWGQGTLVTVSS
notes: Trispecific tandem scFv-sdAb-sdAb on one chain; also called CDR-056
Regarding B4, the binding result in assay [1], in assay [4] and in assay [5] was “binds” throughout.

These data come from patent US20200024358A1 (published 2020).
